Assay results published in patent publication US20190292256A1, “Compounds and Methods to Measure Metabolic Function and Restore Normal Metabolic Function” (priority 2010, published 2019).

B1: Wnt5a: recombinant mouse Wnt5a protein produced in CHO cells, purchased from R&D Systems (protein)
chain: IIGAQPLCSQLAGLSQGQKKLCHLYQDHMQYIGEGAKTGIKECQYQFRHRRWNCSTVDNTSVFGRVMQIGSRETAFTYAVSAAGVVNAMSRACREGELSTCGCSRAARPKDLPRDWLWGGCGDNIDYGYRFAKEFVDARERERIHAKGSYESARILMNLHNNEAGRRTVYNLADVACKCHGVSGSCSLKTCWLQLADFRKVGDALKEKYDSAAAMRLNSRGKLVQVNSRFNSPTTQDLVYIDPSPDYCVRNESTGSLGTQGRLCNKTSEGMDGCELMCCGRGYDQFKTVQTERCHCKFHWCCYVKCKKCTEIVDQFVCK
B2: Sfrp5: secreted frizzled-related protein 5, here overexpressed in adipocytes by AdTRE-Sfrp5 transduction (protein, UniProt Q9WU66 22-314, looked up)
Secreted frizzled-related …: APTRGQEYDYYGWQAEPLHGRSYSKPPQCLDIPADLPLCHTVGYKRMRLPNLLEHESLAEVKQQASSWLPLLAKRCHSDTQVFLCSLFAPVCLDRPIYPCRSLCEAARAGCAPLMEAYGFPWPEMLHCHKFPLDNDLCIAVQFGHLPATAPPVTKICAQCEMEHSADGLMEQMCSSDFVVKMRIKEIKIDNGDRKLIGAQKKKKLLKAGPLKRKDTKKLVLHMKNGASCPCPQLDNLTGSFLVMGRKVEGQLLLTAVYRWDKKNKEMKFAVKFMFSYPCSLYYPFFYGAAEPH

Key:
Format in all cases: cell-based, mouse
3T3-L1 adipocytes = test: Sfrp5 and adiponectin transcript expression in 3T3-L1 adipocytes treated with stress agents (QRT-PCR); settings: differentiated 3T3-L1 adipocytes, 24 h; TNFα 10 ng/ml, H2O2 0.2 mM, tunicamycin 5 μg/ml
Description: (§1) Mouse 3T3-L1 cells (ATCC) were maintained in DMEM with 10% fetal bovine serum (FBS) and differentiated into adipocytes by treatment with DMEM supplemented with 5 μg/ml of insulin, 0.5 mM 1-methyl-3-isobutyl-xanthin, and 1 μM dexamethazone. At day 7 after differentiation, 3T3-L1 adipocytes were treated with tunicamycin, H2O2, TNFα or vehicle for 24 h. Peritoneal macrophages from lean WT C57BL/6 mice were maintained in DMEM supplemented 10% FBS and placed in DMEM with 0.5% FBS for 16 h for serum starvation. Macrophages were incubated in the conditioned media from 3T3-L1 adipocytes transduced with adenoviral vectors in the presence of Wnt5a protein (200 ng/ml) or vehicle for 24 h. In some experiments, cells were pretreated with SP600125 (15 μM) or vehicle for 1 h followed by treatment with Wnt5a protein.
(§2) Epididymal fat pads from male wild-type C57BL/6 mice fed a normal diet were excised, minced in PBS and digested with 1 mg/ml collagenase Type 1 (Worthington Chemical Corporation) at 37° C. for 30 min. The digested fat tissue was filtered through a mesh and centrifuged at 1000 rpm for 5 min to separate floating adipocytes from the SV fraction. Measurement of mRNA Levels Gene expression level was quantified by real-time PCR. Total RNA was prepared with the use of a Qiagen kit. cDNA was produced using ThermoScript RT-PCR Systems (Invitrogen). PCR was performed on iCycler iQ Real-Time PCR Detection System (Bio-Rad) using SYBR Green 1 as a double standard DNA specific dye (Applied Biosystems).

[1] = system: JNK phosphorylation in macrophages; test: Wnt5a-stimulated JNK phosphorylation in peritoneal macrophages (immunoblot); settings: in conditioned media from Ad-β-gal-treated 3T3-L1 adipocytes, 30 min
Description: as §1, with “Macrophages were incubated in the conditioned media from 3T3-L1 adipocytes transduced with adenoviral vectors in the presence of Wnt5a protein (200 ng/ml) or vehicle for 24 h.” left out

[2] = system: phosphorylation of JNK in adipocytes; test: Wnt5a-stimulated JNK phosphorylation in 3T3-L1 adipocytes (immunoblot); settings: Wnt5a 30 min
Description: as §1

[3] = system: TOPflash reporter activity (canonical Wnt signaling); test: TOPflash luciferase reporter assay in 3T3-L1 adipocytes; settings: Wnt5a 200 ng/ml 24 h, AdTRE-Sfrp5 transduction
Description: 3T3-L1 adipocytes were transduced with adenoviral vectors for 24 h and co-transfected with a TOPflash (Upstate) construct and a Renilla luciferase control plasmid (pRL-SV40, Promega) to normalize for transfection efficiency. After transfection, cells were treated with Wnt5a protein (200 ng/ml) or vehicle. Cells were lysed and analyzed on a luminometer by using dual luciferase assay kit (Promega).

[4] = system: IL-6 expression in adipocytes; test: Wnt5a-stimulated IL-6 expression in 3T3-L1 adipocytes (QRT-PCR); settings: Wnt5a 200 ng/ml 24 h
Description: as §1
as §2, with “PCR was performed on iCycler iQ Real-Time PCR Detection System (Bio-Rad) using SYBR Green 1 as a double standard DNA specific dye (Applied Biosystems).” left out

[5] = system: TNFα and IL-6 transcript expression by macrophages; test: Wnt5a-stimulated TNFα and IL-6 transcript expression in peritoneal macrophages (QRT-PCR); settings: Wnt5a 200 ng/ml, 24 h
Description: as §1
as §2, with “PCR was performed on iCycler iQ Real-Time PCR Detection System (Bio-Rad) using SYBR Green 1 as a double standard DNA specific dye (Applied Biosystems).” left out

Row | Molecule | Sfrp5 transcript levels (3T3-L1 adipocytes) | transcript level of adiponectin (3T3-L1 adipocytes) | effect on TOPflash reporter activity [3] | further results
1 | TNFα | significantly reduced | down-regulated |  | 
2 | tunicamycin | significantly reduced | down-regulated |  | 
3 | OO [hydrogen peroxide] | significantly reduced | down-regulated |  | 
4 | B1 |  |  | neither Sfrp5 nor Wnt5a had an effect | JNK phosphorylation in macrophages [1]: stimulated; phosphorylation of JNK in adipocytes [2]: stimulatory effects; IL-6 expression in adipocytes [4]: stimulatory effects; IL-6 transcript expression by macrophages [5]: increased; TNFα transcript expression by macrophages [5]: increased
5 | B2 |  |  | neither Sfrp5 nor Wnt5a had an effect | 
